According to paper PMC3229523, “Identification of Lactoferricin B Intracellular Targets Using an Escherichia coli Proteome Chip” (PLoS ONE, 2011):
Ends that are not written are not given here. * marks the point of attachment. Biotin = O=C1N[C@H]2[C@H](CS[C@H]2CCCCC(=O)*)N1

Assays:
Assay in all cases: peptide or protein array; E. coli proteome chip: purified His-tagged proteins printed in duplicate on Fullmoon slides, blocked with 1% BSA; 10 nM N-terminal biotinylated LfcinB with 1% BSA, room temperature, 1 h; detected with DyLight 649-labeled streptavidin, ratio to DyLight 549-labeled anti-His antibody; ProCAT normalisation, local cut-off; triplicate chips
Details in all cases: both partners purified
YihI = biological target: T1, YihI (E. coli K-12, UniProt P0A8H6 1-169)
T1 construct: YihI, E. coli K-12
T1 sequence (looked up): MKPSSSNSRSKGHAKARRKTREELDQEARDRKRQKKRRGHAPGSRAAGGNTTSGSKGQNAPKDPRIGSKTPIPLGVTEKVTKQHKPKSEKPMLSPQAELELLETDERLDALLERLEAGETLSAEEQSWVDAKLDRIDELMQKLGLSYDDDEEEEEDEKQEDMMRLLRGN

YhgA = biological target: T2, YhgA (E. coli K-12, UniProt P31667 1-292)
T2 construct: YhgA, E. coli K-12
T2 sequence (looked up): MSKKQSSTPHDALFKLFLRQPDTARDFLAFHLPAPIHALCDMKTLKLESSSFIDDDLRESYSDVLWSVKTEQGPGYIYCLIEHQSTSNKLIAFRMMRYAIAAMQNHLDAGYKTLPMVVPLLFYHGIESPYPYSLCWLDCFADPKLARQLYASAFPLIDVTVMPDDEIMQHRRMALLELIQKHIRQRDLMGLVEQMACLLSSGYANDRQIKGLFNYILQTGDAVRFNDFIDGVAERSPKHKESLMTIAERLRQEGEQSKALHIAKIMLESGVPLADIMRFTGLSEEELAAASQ

YfiQ = biological target: T3, YfiQ (E. coli K-12, UniProt P76594 1-886)
T3 construct: YfiQ, E. coli K-12
T3 sequence (looked up): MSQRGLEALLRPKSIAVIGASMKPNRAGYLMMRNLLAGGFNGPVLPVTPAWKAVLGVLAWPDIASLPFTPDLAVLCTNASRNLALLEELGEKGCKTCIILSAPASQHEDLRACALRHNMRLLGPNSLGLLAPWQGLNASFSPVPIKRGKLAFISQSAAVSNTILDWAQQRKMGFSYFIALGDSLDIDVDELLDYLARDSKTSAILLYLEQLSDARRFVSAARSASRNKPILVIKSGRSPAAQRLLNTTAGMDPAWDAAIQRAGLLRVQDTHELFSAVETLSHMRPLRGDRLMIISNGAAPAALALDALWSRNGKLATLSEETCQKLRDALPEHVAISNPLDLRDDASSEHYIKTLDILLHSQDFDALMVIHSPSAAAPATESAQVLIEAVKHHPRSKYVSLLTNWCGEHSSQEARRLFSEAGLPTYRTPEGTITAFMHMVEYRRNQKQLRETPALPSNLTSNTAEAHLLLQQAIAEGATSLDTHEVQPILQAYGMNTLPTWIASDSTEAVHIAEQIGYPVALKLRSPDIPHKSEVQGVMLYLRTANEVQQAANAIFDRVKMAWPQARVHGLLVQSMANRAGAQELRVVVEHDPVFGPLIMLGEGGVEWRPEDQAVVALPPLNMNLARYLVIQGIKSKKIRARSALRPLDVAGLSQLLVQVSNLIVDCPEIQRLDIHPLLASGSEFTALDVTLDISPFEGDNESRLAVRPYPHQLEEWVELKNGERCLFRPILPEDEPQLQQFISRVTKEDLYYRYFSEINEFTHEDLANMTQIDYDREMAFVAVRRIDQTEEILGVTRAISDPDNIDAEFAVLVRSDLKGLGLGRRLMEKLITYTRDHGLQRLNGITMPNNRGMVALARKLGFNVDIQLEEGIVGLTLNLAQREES

YhdG = biological target: T4, YhdG (E. coli K-12, UniProt P0ABT5 1-321)
T4 construct: YhdG, E. coli K-12
T4 sequence (looked up): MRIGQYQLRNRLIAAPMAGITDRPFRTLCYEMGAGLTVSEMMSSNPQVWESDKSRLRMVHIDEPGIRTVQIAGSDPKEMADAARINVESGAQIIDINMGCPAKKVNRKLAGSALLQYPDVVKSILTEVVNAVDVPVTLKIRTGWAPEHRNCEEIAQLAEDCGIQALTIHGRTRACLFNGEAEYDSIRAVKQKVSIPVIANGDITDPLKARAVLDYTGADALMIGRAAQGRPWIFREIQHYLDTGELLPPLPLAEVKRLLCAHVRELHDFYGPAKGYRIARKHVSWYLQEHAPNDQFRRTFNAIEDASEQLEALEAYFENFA

CbpA = biological target: T5, CbpA (E. coli K-12, UniProt P36659 1-306)
T5 construct: CbpA, E. coli K-12
T5 sequence (looked up): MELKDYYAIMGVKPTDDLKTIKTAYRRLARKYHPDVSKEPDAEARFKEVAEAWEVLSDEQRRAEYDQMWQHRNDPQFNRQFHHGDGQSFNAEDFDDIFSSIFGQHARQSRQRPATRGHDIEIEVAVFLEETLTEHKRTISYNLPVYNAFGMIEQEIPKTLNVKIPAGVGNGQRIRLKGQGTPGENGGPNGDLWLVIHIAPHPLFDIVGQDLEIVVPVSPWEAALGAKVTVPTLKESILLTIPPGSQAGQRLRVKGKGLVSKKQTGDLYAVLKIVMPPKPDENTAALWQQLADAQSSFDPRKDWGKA

Measured: binding result

B1: N-terminal biotinylated Lactoferricin B (peptide, UniProt P24627 36-60, looked up)
peptide: Biotin-FKCRRWQWRMKKLGAPSITCVRRAF
modifications: ends and bridges not checked
notes: lactoferricin B (LfcinB), cationic antimicrobial peptide of 25 amino acids; also called biotinylated LfcinB; biotin-labeled LfcinB; source: bought: Kelowna Inc
binds: all assays above
